System: Escherichia coli TOP10
Test: shrunken log2 fold change of peptide-encoding DNA abundance (4.5 h post-induction vs induction); higher = less antimicrobial activity (less host growth inhibition)
Conditions: time post-induction: 4.5 h; library: site-saturation at positions 5, 18, 19, 20
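Further: peptides expressed intracellularly from a pBAD plasmid library in pooled LB shake-flask culture, induced with 0.3% L-arabinose, DNA abundance read by NGS, three biological replicates, DESeq2 with apeglm shrinkage.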

Sequence	shrunken log2 fold change
RRIRRRPPRLPRPRPRPKEWPRP	0.044
RRIRHRPPRLPRPRPRPKYEPRP	-0.255
RRIRMRPPRLPRPRPRPCIHPRP	0.00462
RRIRVRPPRLPRPRPRPERHPRP	-0.0734
RRIRQRPPRLPRPRPRPYKQPRP	0.0225
RRIRQRPPRLPRPRPRPVISPRP	0.0289
RRIRIRPPRLPRPRPRPVSRPRP	0.0446
RRIRRRPPRLPRPRPRPWHSPRP	-0.254
RRIRIRPPRLPRPRPRPDNIPRP	-0.116
RRIRARPPRLPRPRPRPPVMPRP	0.395
RRIRIRPPRLPRPRPRPAVAPRP	0.0259
RRIRIRPPRLPRPRPRPRWGPRP	0.181
RRIRWRPPRLPRPRPRPMYKPRP	-0.0607
RRIRHRPPRLPRPRPRPHWKPRP	-0.337
RRIRMRPPRLPRPRPRPTGYPRP	0.0453
RRIRWRPPRLPRPRPRPRPPPRP	1.11
RRIRYRPPRLPRPRPRPHWIPRP	-0.398
RRIRRRPPRLPRPRPRPDIGPRP	-0.0303
RRIRARPPRLPRPRPRPGTEPRP	0.376
RRIRTRPPRLPRPRPRPGNYPRP	0.0108
RRIRGRPPRLPRPRPRPVKRPRP	0.248
RRIRHRPPRLPRPRPRPMLQPRP	-0.0377
RRIRNRPPRLPRPRPRPSAVPRP	-0.193
RRIRARPPRLPRPRPRPLQPPRP	0.583
RRIRARPPRLPRPRPRPPLSPRP	0.549

Sequence	shrunken log2 fold change
RRIRARPPRLPRPRPRPAHEPRP	0.128
RRIRGRPPRLPRPRPRPGGQPRP	0.672
RRIRNRPPRLPRPRPRPFKAPRP	0.0407
RRIRCRPPRLPRPRPRPQLNPRP	-0.188
RRIRPRPPRLPRPRPRPNPHPRP	0.0866
RRIRGRPPRLPRPRPRPGFMPRP	0.488
RRIRQRPPRLPRPRPRPDRFPRP	0.0204
RRIRARPPRLPRPRPRPRGCPRP	0.822
RRIRFRPPRLPRPRPRPVGCPRP	-0.0325
RRIRKRPPRLPRPRPRPMGLPRP	-0.000777
RRIRGRPPRLPRPRPRPLDVPRP	0.326
RRIRHRPPRLPRPRPRPPMMPRP	0.03
RRIRRRPPRLPRPRPRPQYDPRP	-0.224
RRIRLRPPRLPRPRPRPVKKPRP	0.031
RRIRDRPPRLPRPRPRPMNSPRP	-0.0173
RRIRMRPPRLPRPRPRPWFTPRP	-0.263
RRIRGRPPRLPRPRPRPQKRPRP	0.662
RRIRCRPPRLPRPRPRPWCYPRP	-0.831
RRIRSRPPRLPRPRPRPLAYPRP	0.0208
RRIRYRPPRLPRPRPRPCCSPRP	-0.141
RRIRCRPPRLPRPRPRPDEDPRP	-0.0684
RRIRSRPPRLPRPRPRPTWRPRP	0.424
RRIRDRPPRLPRPRPRPMWPPRP	0.316
RRIRMRPPRLPRPRPRPWSRPRP	0.163
RRIRGRPPRLPRPRPRPKSPPRP	0.677

Sequence	shrunken log2 fold change
RRIRLRPPRLPRPRPRPTDCPRP	-0.197
RRIRSRPPRLPRPRPRPCGWPRP	0.148
RRIRIRPPRLPRPRPRPWSAPRP	-0.649
RRIRARPPRLPRPRPRPALEPRP	1.19
RRIRCRPPRLPRPRPRPVQEPRP	0.286
RRIRNRPPRLPRPRPRPCQPPRP	-0.0231
RRIRRRPPRLPRPRPRPLMMPRP	0.8
RRIRSRPPRLPRPRPRPDKKPRP	-0.158
RRIRSRPPRLPRPRPRPWMDPRP	-0.0373
RRIRDRPPRLPRPRPRPNVPPRP	0.0123
RRIRHRPPRLPRPRPRPIKHPRP	-0.341
RRIRWRPPRLPRPRPRPFHQPRP	-0.259
RRIRIRPPRLPRPRPRPGGNPRP	-0.0373
RRIRVRPPRLPRPRPRPTEWPRP	0.322
RRIRQRPPRLPRPRPRPRESPRP	0.0584
RRIRLRPPRLPRPRPRPCKNPRP	-0.0458
RRIRQRPPRLPRPRPRPKFGPRP	0.102
RRIRMRPPRLPRPRPRPECCPRP	3.54
RRIRLRPPRLPRPRPRPYNAPRP	-0.0942
RRIRWRPPRLPRPRPRPNVKPRP	-0.278
RRIRNRPPRLPRPRPRPGIKPRP	-0.192
RRIRIRPPRLPRPRPRPRHQPRP	-0.289
RRIRNRPPRLPRPRPRPSWLPRP	-0.361
RRIRDRPPRLPRPRPRPCNLPRP	-0.0295
RRIRGRPPRLPRPRPRPQVHPRP	0.231

Sequence	shrunken log2 fold change
RRIRARPPRLPRPRPRPYCHPRP	-0.381
RRIRHRPPRLPRPRPRPEYYPRP	-0.241
RRIRCRPPRLPRPRPRPAHSPRP	-0.129
RRIRMRPPRLPRPRPRPSPDPRP	1.19
RRIRKRPPRLPRPRPRPRHTPRP	0.328
RRIRFRPPRLPRPRPRPDWTPRP	0.039
RRIRTRPPRLPRPRPRPTLQPRP	0.336
RRIRKRPPRLPRPRPRPKNDPRP	0.186
RRIRNRPPRLPRPRPRPIPIPRP	-0.0823
RRIRNRPPRLPRPRPRPAVKPRP	-0.229
RRIRGRPPRLPRPRPRPMEFPRP	0.0673
RRIRKRPPRLPRPRPRPFREPRP	0.223
RRIRHRPPRLPRPRPRPVDMPRP	-0.201
RRIRGRPPRLPRPRPRPALTPRP	0.874
RRIRARPPRLPRPRPRPYGLPRP	0.0316
RRIRRRPPRLPRPRPRPMDNPRP	0.158
RRIRHRPPRLPRPRPRPNADPRP	0.031
RRIRCRPPRLPRPRPRPARTPRP	0.359
RRIRTRPPRLPRPRPRPDAFPRP	-0.014
RRIRVRPPRLPRPRPRPVKHPRP	-0.3
RRIRVRPPRLPRPRPRPSKRPRP	-0.229
RRIRQRPPRLPRPRPRPQAMPRP	0.015
RRIRRRPPRLPRPRPRPIQRPRP	0.168
RRIRERPPRLPRPRPRPLRNPRP	0.308
RRIRGRPPRLPRPRPRPANLPRP	0.166

Sequence	shrunken log2 fold change
RRIRFRPPRLPRPRPRPETPPRP	0.752
RRIRYRPPRLPRPRPRPCMAPRP	-0.117
RRIRERPPRLPRPRPRPVTTPRP	-0.0245
RRIRWRPPRLPRPRPRPGYNPRP	-0.0807
RRIRMRPPRLPRPRPRPPVEPRP	0.664
RRIRYRPPRLPRPRPRPVRPPRP	0.924
RRIRMRPPRLPRPRPRPWWTPRP	0.0804
RRIRYRPPRLPRPRPRPLYTPRP	-0.795
RRIRFRPPRLPRPRPRPTQDPRP	0.33
RRIRQRPPRLPRPRPRPRYYPRP	-0.465
RRIRLRPPRLPRPRPRPSNWPRP	-0.196
RRIRQRPPRLPRPRPRPFQDPRP	-0.195
RRIRARPPRLPRPRPRPSGRPRP	0.0751
RRIRIRPPRLPRPRPRPDQYPRP	-0.0181
RRIRHRPPRLPRPRPRPAMSPRP	0.0912
RRIRQRPPRLPRPRPRPDSGPRP	-0.0171
RRIRARPPRLPRPRPRPTGSPRP	0.841
RRIRWRPPRLPRPRPRPRMVPRP	0.155
RRIRFRPPRLPRPRPRPDDYPRP	-0.0193
RRIRFRPPRLPRPRPRPVQPPRP	0.246
RRIRVRPPRLPRPRPRPMHGPRP	0.00623
RRIRERPPRLPRPRPRPKDLPRP	0.167
RRIRHRPPRLPRPRPRPANLPRP	-0.00674
RRIRERPPRLPRPRPRPYKPPRP	-0.116
RRIRRRPPRLPRPRPRPGCIPRP	0.0498

Sequence	shrunken log2 fold change
RRIRFRPPRLPRPRPRPWKDPRP	-0.192
RRIRNRPPRLPRPRPRPDMMPRP	-0.233
RRIRIRPPRLPRPRPRPDKCPRP	-0.0188
RRIRGRPPRLPRPRPRPPGLPRP	0.786
RRIRDRPPRLPRPRPRPKHEPRP	0.134
RRIRNRPPRLPRPRPRPSRYPRP	-0.000156
RRIRRRPPRLPRPRPRPLMPPRP	0.297
RRIRMRPPRLPRPRPRPDIPPRP	-0.0804
RRIRARPPRLPRPRPRPPIGPRP	0.287
RRIRSRPPRLPRPRPRPPHGPRP	0.1
RRIRTRPPRLPRPRPRPAYTPRP	-0.149
RRIRSRPPRLPRPRPRPSADPRP	0.0633
RRIRPRPPRLPRPRPRPLLIPRP	-0.758
RRIRKRPPRLPRPRPRPYIAPRP	-0.293
RRIRQRPPRLPRPRPRPETQPRP	0.0133
RRIRFRPPRLPRPRPRPLNMPRP	-0.777
RRIRWRPPRLPRPRPRPHDCPRP	-0.00141
RRIRIRPPRLPRPRPRPSWPPRP	-0.227
RRIRSRPPRLPRPRPRPCFPPRP	-0.747
RRIRIRPPRLPRPRPRPLHMPRP	-0.571
RRIRIRPPRLPRPRPRPPRRPRP	0.396
RRIRIRPPRLPRPRPRPKFEPRP	-0.361
RRIRTRPPRLPRPRPRPAYRPRP	-0.111
RRIRTRPPRLPRPRPRPYPQPRP	-0.14
RRIRVRPPRLPRPRPRPTDCPRP	-0.184

From the supplement of paper PMC9112550, “Optimization of the antimicrobial peptide Bac7 by deep mutational scanning” (BMC Biology, 2022)
